# Measurements taken from patent US20120172293A1 (Takeda / Millennium, published 2012).
# Non-standard residues stand in square brackets, D forms with d. No end group written: not given here. *: point of attachment. X11 = ((1S)-1-carboxy-3-methylbutyl)carbamoyl, CC(C)C[C@H](NC(=O)*)C(=O)O; 4‑guanidinomethylbenzoyl = N=C(N)NCc1ccc(C(=O)*)cc1; Phe(3-F) = N[C@@H](Cc1cccc(F)c1)C(=O)O; Phe(3-Me) = Cc1cccc(C[C@H](N)C(=O)O)c1; Phe(4-Me) = Cc1ccc(C[C@H](N)C(=O)O)cc1; 2Nal = N[C@@H](Cc1ccc2ccccc2c1)C(=O)O; Phe(2-F) = N[C@@H](Cc1ccccc1F)C(=O)O; Phe(2-Me) = Cc1ccccc1C[C@H](N)C(=O)O; NMeF = CN[C@@H](Cc1ccccc1)C(=O)O; Tic = O=C(O)[C@@H]1Cc2ccccc2CN1; Cha = N[C@@H](CC1CCCCC1)C(=O)O; dIva = CC[C@@](C)(N)C(=O)O; 4Amb = NCc1ccc(C(=O)O)cc1; Iva = CC[C@](C)(N)C(=O)O; Aib = CC(C)(N)C(=O)O
# Tests used:
# [1] = target: T1, human Y2 receptor (human, UniProt P49146 1-381); assay: cell-based or functional assay
# T1 sequence (looked up): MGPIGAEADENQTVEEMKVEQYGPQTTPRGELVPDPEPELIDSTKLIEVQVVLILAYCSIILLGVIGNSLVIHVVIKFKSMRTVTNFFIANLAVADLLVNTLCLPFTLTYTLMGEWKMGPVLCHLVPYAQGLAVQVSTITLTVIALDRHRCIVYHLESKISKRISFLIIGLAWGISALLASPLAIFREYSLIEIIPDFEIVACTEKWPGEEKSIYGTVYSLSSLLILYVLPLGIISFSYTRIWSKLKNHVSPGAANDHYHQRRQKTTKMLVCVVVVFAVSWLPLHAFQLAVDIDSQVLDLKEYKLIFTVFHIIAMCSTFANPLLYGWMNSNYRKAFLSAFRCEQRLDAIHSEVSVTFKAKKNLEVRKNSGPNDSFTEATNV
# [2] = target: T1, human Y2 receptor; assay: RBA: [125I]-PYY displacement, hY2R/CHO membranes
# In short: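 Bound radioligand was collected by filtration on PEI-treated GF/C filters, washed with Tris/MgCl₂/NaCl/CHAPS buffer pH 7.4, and counted by scintillation; IC₅₀ values were calculated.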
Binder,"GBA EC50 Ratio (vs PYY(3-36)), [35S]GTPγS [1]",IC50 Ratio (vs PYY(3-36)) [2]
"X11-S[dP]RH[Cha][Cha]NL[Aib]TRQR[Cha]-NH2 (SMILES CC(C)C[C@H](NC(=O)N[C@@H](CO)C(=O)N1CCC[C@@H]1C(=O)N[C@@H](CCCNC(=N)N)C(=O)N[C@@H](Cc1c[nH]cn1)C(=O)N[C@@H](CC1CCCCC1)C(=O)N[C@@H](CC1CCCCC1)C(=O)N[C@@H](CC(N)=O)C(=O)N[C@@H](CC(C)C)C(=O)NC(C)(C)C(=O)N[C@H](C(=O)N[C@@H](CCCNC(=N)N)C(=O)N[C@@H](CCC(N)=O)C(=O)N[C@@H](CCCNC(=N)N)C(=O)N[C@@H](CC1CCCCC1)C(N)=O)[C@@H](C)O)C(=O)O, also called compound No. 184) [[(1S)-1-carboxy-3-methylbutyl]carbamoyl-[D-Pro24, Cha27,28,36, Aib31]-PYY(23-36)]",2.9 ratio,1.5 ratio
"[4Amb]RAYINLITRQR[Phe(4-Me)]-NH2 (N-terminus assumed; SMILES CC[C@H](C)[C@H](NC(=O)[C@H](Cc1ccc(O)cc1)NC(=O)[C@H](C)NC(=O)[C@H](CCCNC(=N)N)NC(=O)c1ccc(CN)cc1)C(=O)N[C@@H](CC(N)=O)C(=O)N[C@@H](CC(C)C)C(=O)N[C@H](C(=O)N[C@H](C(=O)N[C@@H](CCCNC(=N)N)C(=O)N[C@@H](CCC(N)=O)C(=O)N[C@@H](CCCNC(=N)N)C(=O)N[C@@H](Cc1ccc(C)cc1)C(N)=O)[C@@H](C)O)[C@@H](C)CC, also called compound No. 15) [4-Aminomethylbenzoyl-[Ala26, Ile28,31, Phe(4Me)36]-PYY(25-36)]",5.5 ratio,8.7 ratio
"Ac-S[dP]RH[Cha][Cha]NL[Aib]TRQR[Phe(2-F)]-NH2 (SMILES CC(=O)N[C@@H](CO)C(=O)N1CCC[C@@H]1C(=O)N[C@@H](CCCNC(=N)N)C(=O)N[C@@H](Cc1c[nH]cn1)C(=O)N[C@@H](CC1CCCCC1)C(=O)N[C@@H](CC1CCCCC1)C(=O)N[C@@H](CC(N)=O)C(=O)N[C@@H](CC(C)C)C(=O)NC(C)(C)C(=O)N[C@H](C(=O)N[C@@H](CCCNC(=N)N)C(=O)N[C@@H](CCC(N)=O)C(=O)N[C@@H](CCCNC(=N)N)C(=O)N[C@@H](Cc1ccccc1F)C(N)=O)[C@@H](C)O, also called compound No. 194) [Ac-[D-Pro24, Cha27,28, Aib31, Phe(2F)36]-PYY(23-36)]",1.3 ratio,1.4 ratio
"Ac-S[dP]RH[Cha][Cha]NL[Aib]TRQR[Phe(2-Me)]-NH2 (SMILES CC(=O)N[C@@H](CO)C(=O)N1CCC[C@@H]1C(=O)N[C@@H](CCCNC(=N)N)C(=O)N[C@@H](Cc1c[nH]cn1)C(=O)N[C@@H](CC1CCCCC1)C(=O)N[C@@H](CC1CCCCC1)C(=O)N[C@@H](CC(N)=O)C(=O)N[C@@H](CC(C)C)C(=O)NC(C)(C)C(=O)N[C@H](C(=O)N[C@@H](CCCNC(=N)N)C(=O)N[C@@H](CCC(N)=O)C(=O)N[C@@H](CCCNC(=N)N)C(=O)N[C@@H](Cc1ccccc1C)C(N)=O)[C@@H](C)O, also called compound No. 196) [Ac-[D-Pro24, Cha27,28, Aib31, Phe(2Me)36]-PYY(23-36)]",1.6 ratio,1.6 ratio
"Ac-R[dY]AS[dP]RH[Cha][Cha]NL[Aib]TRQR[Cha]-NH2 (SMILES CC(=O)N[C@@H](CCCNC(=N)N)C(=O)N[C@H](Cc1ccc(O)cc1)C(=O)N[C@@H](C)C(=O)N[C@@H](CO)C(=O)N1CCC[C@@H]1C(=O)N[C@@H](CCCNC(=N)N)C(=O)N[C@@H](Cc1c[nH]cn1)C(=O)N[C@@H](CC1CCCCC1)C(=O)N[C@@H](CC1CCCCC1)C(=O)N[C@@H](CC(N)=O)C(=O)N[C@@H](CC(C)C)C(=O)NC(C)(C)C(=O)N[C@H](C(=O)N[C@@H](CCCNC(=N)N)C(=O)N[C@@H](CCC(N)=O)C(=O)N[C@@H](CCCNC(=N)N)C(=O)N[C@@H](CC1CCCCC1)C(N)=O)[C@@H](C)O, also called compound No. 164) [Ac-[Arg20, D-Tyr21, D-Pro24, Cha27,28,36, Aib31]-PYY(20-36)]",0.66 ratio,0.44 ratio
"[4Amb]RAYINLITRQR[2Nal]-NH2 (N-terminus assumed; SMILES CC[C@H](C)[C@H](NC(=O)[C@H](Cc1ccc(O)cc1)NC(=O)[C@H](C)NC(=O)[C@H](CCCNC(=N)N)NC(=O)c1ccc(CN)cc1)C(=O)N[C@@H](CC(N)=O)C(=O)N[C@@H](CC(C)C)C(=O)N[C@H](C(=O)N[C@H](C(=O)N[C@@H](CCCNC(=N)N)C(=O)N[C@@H](CCC(N)=O)C(=O)N[C@@H](CCCNC(=N)N)C(=O)N[C@@H](Cc1ccc2ccccc2c1)C(N)=O)[C@@H](C)O)[C@@H](C)CC, also called compound No. 14) [4-Aminomethylbenzoyl-[Ala26, Ile28,31, Nal(2)36]-PYY(25-36)]",6.9 ratio,14 ratio
"Ac-S[dP]RH[Cha][Cha]NL[Aib]TRQR[Phe(3-Me)]-NH2 (SMILES CC(=O)N[C@@H](CO)C(=O)N1CCC[C@@H]1C(=O)N[C@@H](CCCNC(=N)N)C(=O)N[C@@H](Cc1c[nH]cn1)C(=O)N[C@@H](CC1CCCCC1)C(=O)N[C@@H](CC1CCCCC1)C(=O)N[C@@H](CC(N)=O)C(=O)N[C@@H](CC(C)C)C(=O)NC(C)(C)C(=O)N[C@H](C(=O)N[C@@H](CCCNC(=N)N)C(=O)N[C@@H](CCC(N)=O)C(=O)N[C@@H](CCCNC(=N)N)C(=O)N[C@@H](Cc1cccc(C)c1)C(N)=O)[C@@H](C)O, also called compound No. 197) [Ac-[D-Pro24, Cha27,28, Aib31, Phe(3Me)36]-PYY(23-36)]",1.9 ratio,1.3 ratio
"Ac-S[dP]RH[Cha][Cha]NL[Aib]TRQR[Phe(3-F)]-NH2 (SMILES CC(=O)N[C@@H](CO)C(=O)N1CCC[C@@H]1C(=O)N[C@@H](CCCNC(=N)N)C(=O)N[C@@H](Cc1c[nH]cn1)C(=O)N[C@@H](CC1CCCCC1)C(=O)N[C@@H](CC1CCCCC1)C(=O)N[C@@H](CC(N)=O)C(=O)N[C@@H](CC(C)C)C(=O)NC(C)(C)C(=O)N[C@H](C(=O)N[C@@H](CCCNC(=N)N)C(=O)N[C@@H](CCC(N)=O)C(=O)N[C@@H](CCCNC(=N)N)C(=O)N[C@@H](Cc1cccc(F)c1)C(N)=O)[C@@H](C)O, also called compound No. 195) [Ac-[D-Pro24, Cha27,28, Aib31, Phe(3F)36]-PYY(23-36)]",1.5 ratio,2.1 ratio
"Ac-S[dP]RH[dIva][Cha]NL[Aib]TRQR[Cha]-NH2 (SMILES CC[C@@](C)(NC(=O)[C@H](Cc1c[nH]cn1)NC(=O)[C@H](CCCNC(=N)N)NC(=O)[C@H]1CCCN1C(=O)[C@H](CO)NC(C)=O)C(=O)N[C@@H](CC1CCCCC1)C(=O)N[C@@H](CC(N)=O)C(=O)N[C@@H](CC(C)C)C(=O)NC(C)(C)C(=O)N[C@H](C(=O)N[C@@H](CCCNC(=N)N)C(=O)N[C@@H](CCC(N)=O)C(=O)N[C@@H](CCCNC(=N)N)C(=O)N[C@@H](CC1CCCCC1)C(N)=O)[C@@H](C)O, also called compound No. 180) [Ac-[D-Pro24, D-Iva27, Cha28,36, Aib31]-PYY(23-36)]",6 ratio,8.1 ratio
"[4Amb]RAYINLITRQR[NMeF]-NH2 (N-terminus assumed; SMILES CC[C@H](C)[C@H](NC(=O)[C@H](Cc1ccc(O)cc1)NC(=O)[C@H](C)NC(=O)[C@H](CCCNC(=N)N)NC(=O)c1ccc(CN)cc1)C(=O)N[C@@H](CC(N)=O)C(=O)N[C@@H](CC(C)C)C(=O)N[C@H](C(=O)N[C@H](C(=O)N[C@@H](CCCNC(=N)N)C(=O)N[C@@H](CCC(N)=O)C(=O)N[C@@H](CCCNC(=N)N)C(=O)N(C)[C@@H](Cc1ccccc1)C(N)=O)[C@@H](C)O)[C@@H](C)CC, also called compound No. 16) [4-Aminomethylbenzoyl-[Ala26, Ile28,31, NMePhe36]-PYY(25-36)]",45 ratio,120 ratio
"Ac-S[dP]RH[Iva][Cha]NL[Aib]TRQR[Cha]-NH2 (SMILES CC[C@](C)(NC(=O)[C@H](Cc1c[nH]cn1)NC(=O)[C@H](CCCNC(=N)N)NC(=O)[C@H]1CCCN1C(=O)[C@H](CO)NC(C)=O)C(=O)N[C@@H](CC1CCCCC1)C(=O)N[C@@H](CC(N)=O)C(=O)N[C@@H](CC(C)C)C(=O)NC(C)(C)C(=O)N[C@H](C(=O)N[C@@H](CCCNC(=N)N)C(=O)N[C@@H](CCC(N)=O)C(=O)N[C@@H](CCCNC(=N)N)C(=O)N[C@@H](CC1CCCCC1)C(N)=O)[C@@H](C)O, also called compound No. 175) [Ac-[D-Pro24, Iva27, Cha28,36, Aib31]-PYY(23-36)]",2.6 ratio,6.4 ratio
"[4Amb]RAYINLITRQR[Tic]-NH2 (N-terminus assumed; SMILES CC[C@H](C)[C@H](NC(=O)[C@H](Cc1ccc(O)cc1)NC(=O)[C@H](C)NC(=O)[C@H](CCCNC(=N)N)NC(=O)c1ccc(CN)cc1)C(=O)N[C@@H](CC(N)=O)C(=O)N[C@@H](CC(C)C)C(=O)N[C@H](C(=O)N[C@H](C(=O)N[C@@H](CCCNC(=N)N)C(=O)N[C@@H](CCC(N)=O)C(=O)N[C@@H](CCCNC(=N)N)C(=O)N1Cc2ccccc2C[C@H]1C(N)=O)[C@@H](C)O)[C@@H](C)CC, also called compound No. 17) [4-Aminomethylbenzoyl-[Ala26, Ile28,31, Tic36]-PYY(25-36)]",66 ratio,180 ratio
"{4‑guanidinomethylbenzoyl}-RAYINLITRQRY-NH2 (SMILES CC[C@H](C)[C@H](NC(=O)[C@H](Cc1ccc(O)cc1)NC(=O)[C@H](C)NC(=O)[C@H](CCCNC(=N)N)NC(=O)c1ccc(CNC(=N)N)cc1)C(=O)N[C@@H](CC(N)=O)C(=O)N[C@@H](CC(C)C)C(=O)N[C@H](C(=O)N[C@H](C(=O)N[C@@H](CCCNC(=N)N)C(=O)N[C@@H](CCC(N)=O)C(=O)N[C@@H](CCCNC(=N)N)C(=O)N[C@@H](Cc1ccc(O)cc1)C(N)=O)[C@@H](C)O)[C@@H](C)CC, also called compound No. 4) [4-Guanidinomethylbenzoyl-[Ala26, Ile28,31]-PYY(25-36)]",1.1 ratio,2.4 ratio
